From article PMC9359175

Experiments:
Assay in all cases: ITC; […]; 298 K; 20 mM HEPES pH 7.5, 150 mM NaCl; […]
[1] = target: 5HB-H1 (SARS-CoV-2 5-helix bundle, longest construct) (SARS-CoV-2) (UniProt P0DTC2)
[2] = target: 5HB-H3 (SARS-CoV-2 5-helix bundle, truncated construct) (SARS-CoV-2) (UniProt P0DTC2)
[3] = target: 5HB-H4 (SARS-CoV-2 5-helix bundle, shortest construct) (SARS-CoV-2) (UniProt P0DTC2)

HR2P, 36-mer peptide derived from SARS-CoV-2 S HR2 (D1168-L1203)
Kd [1]: 9 nM
Kd [2]: 18.4 nM
Kd [3]: 446 nM
